The record followed here is patent US6867003.

This experiment deals with insulin receptor partially purified from CHO-IR cells (Chinese Hamster Ovary cells expressing high levels of insulin receptors of human origin) (human) (UniProt P06213). Briefly: cell-based or functional assay.

B1: GST-mGrb10 (protein, mouse, UniProt Q60760 1-621, looked up, not shown: a dimerising Fc or GST)
chain: MNNDINSSVESLNSACNMQSDTDTAPLLEDGQHASNQGAASSSRGQPQASPRQKMQRSQPVHILRRLQEEDQQLRTASLPAIPNPFPELTGAAPGSPPSVAPSSLPPPPSQPPAKHCGRCEKWIPGENTRGNGKRKIWRWQFPPGFQLSKLTRPGLWTKTTARFSKKQPKNQCPTDTVNPVARMPTSQMEKLRLRKDVKVFSEDGTSKVVEILTDMTARDLCQLLVYKSHCVDDNSWTLVEHHPQLGLERCLEDHEIVVQVESTMPSESKFLFRKNYAKYEFFKNPVNFFPDQMVNWCQQSNGGQAQLLQNFLNTSSCPEIQGFLQVKEVGRKSWKKLYVCLRRSGLYYSTKGTSKEPRHLQLLADLEESSIFYLIAGKKQYNAPNEHGMCIKPNKAKTEMKELRLLCAEDEQIRTCWMTAFRLLKYGMLLYQNYRIPQRKGLPPPFNAPMRSVSENSLVAMDFSGQIGRVIDNPAEAQSAALEEGHAWRKRSTRMNILSSQSPLHPSTLNAVIHRTQHWFHGRISREESHRIIKQQGLVDGLFLLRDSQSNPKAFVLTLCHHQKIKNFQILPCEDDGQTFFTLDDGNTKFSDLIQLVDFYQLNKGVLPCKLKHHCIRVAL
In the case of B1, the amount giving 50% inhibition of the tyrosine kinase activity of the receptors (32P incorporation into poly Glu-Tyr) amounted to 0.13 µg.
